Experimental findings from article PMC10713552 (Communications Biology, 2023) are described below.

Residue numbers refer to the chain shown, from its start.

The target of assay [1] is D614G-Hexapro (WT) spike ectodomain (SARS-CoV-2 Wuhan-Hu-1 D614G, D614G). In words: BLI. For orientation: Biolayer interferometry detects binding as a change in optical thickness at a sensor tip.
In assay [2] the target is Omicron BA.1 spike protein ectodomain (BLI) (SARS-CoV-2 Omicron BA.1, strain). In words: BLI.

B1: 0388-YN3_T65Q (antibody, V domains shown)
VH: QVQLQQWGPGLVNPSETLSLTCSVSGGSFATENYYWSWIRQHPGEGLEWIGNIYFSGNQYYNPSLNNRFTISFDTSKNHLSLKLPSVTAADTAVYYCARGTIYFDYSGYRRVDPFHIWGQGTMVIVSS
VL: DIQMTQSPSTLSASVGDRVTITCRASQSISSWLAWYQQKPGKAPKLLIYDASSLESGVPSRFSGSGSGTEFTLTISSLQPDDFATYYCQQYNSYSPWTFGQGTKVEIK
notes: source: Expi293F, transfected
For B1, in assay [1], the Kd – broadly, the equilibrium constant for the complex coming apart – was 1910 nM; the koff – broadly, the first-order rate constant of dissociation – was found to be 0.00186 s⁻¹; the on-rate (kon) – broadly, a measure of how fast the partners come together – stood at 973 M⁻¹ s⁻¹. In assay [2], binding was put at a Kd of 37.7 nM, the koff was determined as 0.00058 s⁻¹ and the on-rate (kon) is 15400 M⁻¹ s⁻¹.

B2: 0345-MN3_T65K (antibody, V domains shown)
VH: B1 VH with Q59K, Y106M
VL: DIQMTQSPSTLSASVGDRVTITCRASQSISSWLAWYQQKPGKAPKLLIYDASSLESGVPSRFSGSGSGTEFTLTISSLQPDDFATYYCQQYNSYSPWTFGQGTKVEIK
notes: source: Expi293F, transfected
In assay [1], B2 displayed a Kd of 346 nM, a koff of 7.97e-05 s⁻¹ and a kon of 230 M⁻¹ s⁻¹. Moreover, in assay [2], the Kd is 41.4 nM, the koff is 0.00172 s⁻¹ and the kon is 41600 M⁻¹ s⁻¹.

B3: 0383-YN3_T65K (antibody, V domains shown)
VH: B1 VH with Q59K
VL: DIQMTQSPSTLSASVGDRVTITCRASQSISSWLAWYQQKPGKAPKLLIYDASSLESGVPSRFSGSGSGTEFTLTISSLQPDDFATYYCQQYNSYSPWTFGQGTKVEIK
notes: source: Expi293F, transfected
Take B3: in assay [1], the Kd was determined as 682 nM, the koff was found to be 0.000178 s⁻¹ and the kon came to 261 M⁻¹ s⁻¹. For the same molecule, in assay [2], the affinity, expressed as Kd, was 50.6 nM; the koff is 0.00099 s⁻¹; the kon came out at 19600 M⁻¹ s⁻¹.

B4: 0347-MN3_T65M (antibody, V domains shown)
VH: B1 VH with Q59M, Y106M
VL: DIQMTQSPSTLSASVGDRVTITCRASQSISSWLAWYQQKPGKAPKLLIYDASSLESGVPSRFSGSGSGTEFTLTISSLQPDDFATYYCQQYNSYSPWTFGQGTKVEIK
notes: source: Expi293F, transfected
In assay [1], B4 displayed an equilibrium dissociation constant (Kd) of 880 nM, a koff of 0.000233 s⁻¹ and a kon of 264 M⁻¹ s⁻¹. In assay [2], this molecule displayed a Kd of 39.7 nM, a koff of 0.00209 s⁻¹ and a kon of 52700 M⁻¹ s⁻¹.

B5: 0335-LN3_T65V (antibody, V domains shown)
VH: B1 VH with Q59V, Y106L
VL: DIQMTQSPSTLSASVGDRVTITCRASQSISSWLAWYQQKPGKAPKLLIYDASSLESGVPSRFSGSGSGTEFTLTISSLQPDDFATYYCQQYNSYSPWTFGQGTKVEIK
notes: source: Expi293F, transfected
In assay [1], B5 gave a Kd of 135 nM, an off-rate constant (koff) of 0.000502 s⁻¹ and a kon of 3730 M⁻¹ s⁻¹. Also, in assay [2], the Kd was found to be 49.2 nM, the koff worked out at 0.00196 s⁻¹ and the kon came to 39700 M⁻¹ s⁻¹.

B6: 0340-MN3_T65E (antibody, V domains shown)
VH: B1 VH with Q59E, Y106M
VL: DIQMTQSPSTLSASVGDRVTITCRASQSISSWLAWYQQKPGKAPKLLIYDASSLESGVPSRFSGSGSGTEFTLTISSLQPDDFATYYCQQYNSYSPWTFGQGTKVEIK
notes: source: Expi293F, transfected
As for B6, in assay [1], the affinity, expressed as Kd, was 371 nM; the koff turned out to be 7.27e-05 s⁻¹; the kon came to 196 M⁻¹ s⁻¹. Besides, in assay [2], the Kd was 48.2 nM, the dissociation rate constant (koff) is 0.0021 s⁻¹ and the kon turned out to be 43700 M⁻¹ s⁻¹.

B7: 0331-LN3_T65Q (antibody, V domains shown)
VH: B1 VH with Y106L
VL: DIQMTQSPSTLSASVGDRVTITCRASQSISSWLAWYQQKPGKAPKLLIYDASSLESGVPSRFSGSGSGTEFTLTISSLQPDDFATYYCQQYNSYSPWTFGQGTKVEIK
notes: source: Expi293F, transfected
In the case of B7, in assay [1], the affinity, expressed as Kd, was 1.18 nM; the koff was found to be 0.00083 s⁻¹; the kon was 703000 M⁻¹ s⁻¹. In assay [2], this molecule came in with a Kd of 38.2 nM, a koff of 0.00223 s⁻¹ and a kon of 58400 M⁻¹ s⁻¹.

B8: 0341-MN3_T65F (antibody, V domains shown)
VH: B1 VH with Q59F, Y106M
VL: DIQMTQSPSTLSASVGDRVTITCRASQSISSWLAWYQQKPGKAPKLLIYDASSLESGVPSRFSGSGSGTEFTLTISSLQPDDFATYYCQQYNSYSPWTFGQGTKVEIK
notes: source: Expi293F, transfected
With B8, in assay [1], binding was put at a Kd of 146 nM, the koff stood at 0.000179 s⁻¹ and the kon is 1230 M⁻¹ s⁻¹. In assay [2], this molecule displayed a Kd of 41.2 nM, an off-rate constant (koff) of 0.00171 s⁻¹ and a kon of 41500 M⁻¹ s⁻¹.

B9: 0348-MN3_T65N (antibody, V domains shown)
VH: B1 VH with Q59N, Y106M
VL: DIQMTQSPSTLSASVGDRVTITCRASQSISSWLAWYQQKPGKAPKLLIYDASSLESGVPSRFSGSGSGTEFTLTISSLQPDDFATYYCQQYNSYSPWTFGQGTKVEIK
notes: source: Expi293F, transfected
Take B9: in assay [1], binding was characterised by a dissociation constant (Kd) of 130 nM, the off-rate constant (koff) came to 9.93e-05 s⁻¹ and the kon was determined as 765 M⁻¹ s⁻¹. In assay [2], this molecule had a Kd of 43 nM, a koff of 0.00196 s⁻¹ and a kon of 45700 M⁻¹ s⁻¹.

B10: 0350-MN3_T65Q (antibody, V domains shown)
VH: B1 VH with Y106M
VL: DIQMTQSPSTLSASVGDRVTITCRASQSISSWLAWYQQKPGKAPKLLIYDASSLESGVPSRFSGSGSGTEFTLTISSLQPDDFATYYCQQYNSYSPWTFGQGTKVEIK
notes: source: Expi293F, transfected
In assay [1], B10 registered a Kd of 643 nM, a koff of 0.00015 s⁻¹ and an on-rate constant (kon) of 233 M⁻¹ s⁻¹. In assay [2], this molecule registered a Kd of 38.5 nM, a koff of 0.000871 s⁻¹ and a kon of 22700 M⁻¹ s⁻¹.

B11: 0374-N3_T65W (antibody, V domains shown)
VH: B1 VH with Q59W, Y106R
VL: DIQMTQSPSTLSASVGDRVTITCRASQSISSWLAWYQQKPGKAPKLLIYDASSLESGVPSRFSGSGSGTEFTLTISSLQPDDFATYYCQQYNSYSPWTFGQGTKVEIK
notes: source: Expi293F, transfected
For B11, in assay [1], the kon came to 190 M⁻¹ s⁻¹. In assay [2], the Kd turned out to be 42.5 nM, the koff is 0.000694 s⁻¹ and the association rate constant (kon) is 16300 M⁻¹ s⁻¹.
